Target: rGST (UniProt P08515 1-218)
Assay: EMSA; 1 and 3 μg rGST; Chemiluminescent EMSA Kit (Beyotime), buffer, salt and pH not stated; competitor 10 min then biotin probe 20 min at 25 °C; native 6% polyacrylamide gel
Details: protein: recombinant; chain copies: 2; blunt

Sequence of rGST (P08515 whole entry): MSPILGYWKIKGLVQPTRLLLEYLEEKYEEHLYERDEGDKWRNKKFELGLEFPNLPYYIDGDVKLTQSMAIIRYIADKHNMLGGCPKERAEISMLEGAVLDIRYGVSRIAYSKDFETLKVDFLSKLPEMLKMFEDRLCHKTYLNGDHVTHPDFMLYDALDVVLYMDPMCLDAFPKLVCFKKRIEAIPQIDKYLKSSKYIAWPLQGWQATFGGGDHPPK

B1: HK-WT probe (dsDNA)
DNA 1: CAAATGACTAGAACGTGCGACATTAGTGAA
DNA 2: TTCACTAATGTCGCACGTTCTAGTCATTTG
- binding result: no binding

Source: paper PMC10070494, “WSSV exploits AMPK to activate mTORC2 signaling for proliferation by enhancing aerobic glycolysis”
